PMC5986150

Columns and labels:
[1] = target: 12-ADA CaM (Drosophila melanogaster calmodulin engineered with an N-terminal N-myristoyl transferase recognition peptide and labelled with 12-azidododecanoic acid) (Drosophila melanogaster) (UniProt P62152); experiment: pull-down; purified 12-ADA CaM (1, 2 or 5 mg mL^-1) conjugated to DBCO-Sepharose; clarified E. coli lysate with CaN (25 mM Tris pH 7.5, 3 mM MgCl2, 100 mM NaCl, 2 mM CaCl2) incubated with the resin at 4°C for 45 minutes - 1 hr; washes with 2 mM CaCl2, one with 1 M NaCl; eluted with 1 mM EGTA; semi-quantitative SDS-PAGE with Coomassie
[2] = target: Calmodulin of Calmodulin Sepharose 4B (GE Healthcare Life Sciences) (UniProt P62157); experiment: pull-down; commercial Calmodulin Sepharose 4B (GE); clarified E. coli lysate with CaN (2 mM CaCl2) incubated with the resin at 4°C, in parallel with the 12-ADA CaM resins; eluted with 1 mM EGTA; semi-quantitative SDS-PAGE with Coomassie
[3] = target: 12-ADA CaM (Drosophila melanogaster calmodulin engineered with an N-terminal N-myristoyl transferase recognition peptide and labelled with 12-azidododecanoic acid) (Drosophila melanogaster) (UniProt P62152); experiment: pull-down; 12-ADA CaM conjugated to DBCO-Sepharose directly from clarified lysate, resin washed; clarified E. coli lysate with CaN (25 mM Tris pH 7.5, 3 mM MgCl2, 100 mM NaCl, 2 mM CaCl2) incubated with the resin at 4°C for 45 minutes - 1 hr; washes with 2 mM CaCl2, one with 1 M NaCl; eluted with 1 mM EGTA; semi-quantitative SDS-PAGE with Coomassie

- avg. amount of CaN purified from the resin [1]: 0.1 mg
- avg. amount of CaN purified from the resin [2]: 0.2 mg
- avg. amount of CaN purified from the resin [3]: 0.6 mg
Substance: Human calcineurin (CaN), α and β subunits (from UniProt Q08209 1-521; P63098 1-170) (complex)
